The source of these data is US20190241648A1 (STATEN BIOTECHNOLOGY B V, published 2019).

Ends that are not written are not given here.

Holding throughout (test): peptide microarray
In one assay the target is T1, ApoC3 peptide … K60A (human, not fully specified (bridges); also: cyclic constrained).
T1 peptide: DAFSEFWDLDPEV
The procedure: (§1) F64 was completely variable.
(§2) Pre: staining of one of the ApoC3 peptide microarrays was done with the secondary antibody goat anti-human IgG (Fe) DyLight680 (1:5000) and control antibody mouse monoclonal anti-HA (12CA5) DyLight800 (1:2000) to investigate background interactions of the secondary antibody with the antigen-derived peptides that could interfere with the main assays. Subsequent incubation of other ApoC3 peptide microarrays with antibody samples was followed by staining with secondary and control antibodies as well as read-out at scanning intensities of 7/7 (red/green). The additional HA peptides framing the peptide arrays were stained as internal quality control to confirm the assay quality and the peptide microarray integrity.

The next assay deals with T2, ApoC3 peptide … D66A (human, not fully specified (bridges); also: cyclic constrained).
T2 peptide: DKFSEFWALDPEV
The procedure: as §1, §2

In the next assay the target is T3, ApoC3 peptide … K60E (human, not fully specified (bridges); also: cyclic constrained).
T3 peptide: DEFSEFWDLDPEV
The procedure: as §1, §2

In another assay the target is T4, ApoC3 peptide … D68E (human, cyclic constrained).
T4 peptide: DKFSEFWDLEPEV
The protocol: as §1, §2

A further assay addresses T5, ApoC3 peptide … F61G (human, cyclic constrained).
T5 peptide: DKGSEFWDLDPEV
The procedure: as §1, §2

A further assay has as its target T6, ApoC3 peptide … D66G (human, not fully specified (bridges); also: cyclic constrained).
T6 peptide: DKFSEFWGLDPEV
The procedure: as §1, §2

The target of another assay is T7, ApoC3 peptide … P69G (human, not fully specified (bridges); also: cyclic constrained).
T7 peptide: DKFSEFWDLDGEV
The procedure: as §1, §2

In a further assay the target is T8, ApoC3 peptide … D66I (human, not fully specified (bridges); also: cyclic constrained).
T8 peptide: DKFSEFWILDPEV
The protocol:
as §1, §2

The target in a further assay is T9, ApoC3 peptide … E70I (human, not fully specified (bridges); also: cyclic constrained).
T9 peptide: DKFSEFWDLDPIV
The protocol:
as §1, §2

Another assay has as its target T10, ApoC3 peptide … P69K (human, not fully specified (bridges); also: cyclic constrained).
T10 peptide: DKFSEFWDLDKEV
The protocol: as §1, §2

The target in a further assay is T11, ApoC3 peptide … D68L (human, cyclic constrained).
T11 peptide: DKFSEFWDLLPEV
The procedure: as §1, §2

Another assay deals with T12, ApoC3 peptide … F64M (human, not fully specified (bridges); also: cyclic constrained).
T12 peptide: DKFSEMWDLDPEV
The procedure:
as §1, §2

In another assay the target is T13, ApoC3 peptide … D68M (human, cyclic constrained).
T13 peptide: DKFSEFWDLMPEV
The protocol: as §1, §2

A further assay deals with ApoC3 peptide … S62N (human, cyclic constrained). The procedure: as §1, §2
The target of the next assay is ApoC3 peptide … E63P (human, cyclic constrained). The protocol:
as §1, §2

Another assay concerns the target T14, ApoC3 peptide … W65R (human, not fully specified (bridges); also: cyclic constrained, ring type and places not given here).
T14 peptide: DKFSEFRDLDPEV
The protocol:
as §1, §2

The target of another assay is ApoC3 peptide … P69R (human, cyclic constrained). The protocol:
as §1, §2

A further assay deals with T15, ApoC3 peptide … L67S (human, not fully specified (bridges); also: cyclic constrained).
T15 peptide: DKFSEFWDSDPEV
The procedure:
as §1, §2

Another assay addresses ApoC3 peptide … E63T (human, cyclic constrained). The protocol:
as §1, §2

For the next assay, the target named is T16, ApoC3 peptide … L67T (human, not fully specified (bridges); also: cyclic constrained).
T16 peptide: DKFSEFWDTDPEV
The protocol:
as §1, §2

Another assay addresses T17, ApoC3 peptide … W65V (human, not fully specified (bridges); also: cyclic constrained, ring type and places not given here).
T17 peptide: DKFSEFVDLDPEV
The procedure:
as §1, §2

The next assay has as its target T18, ApoC3 peptide … D66V (human, not fully specified (bridges); also: cyclic constrained).
T18 peptide: DKFSEFWVLDPEV
The procedure:
as §1, §2

The next assay addresses T19, ApoC3 peptide … K60W (human, not fully specified (bridges); also: cyclic constrained).
T19 peptide: DWFSEFWDLDPEV
The protocol:
as §1, §2

The next assay addresses ApoC3 peptide … S62Y (human, cyclic constrained). The protocol:
as §1, §2

For the next assay, the target named is T20, ApoC3 peptide … L67Y (human, not fully specified (bridges); also: cyclic constrained).
T20 peptide: DKFSEFWDYDPEV
The protocol:
as §1, §2

The target in a further assay is ApoC3 peptide … D68Y (human, cyclic constrained). The procedure:
as §1, §2

Another assay has as its target T21, ApoC3 peptide … G41A (human, also: cyclic constrained).
T21 peptide: ARAWVTDGFSSLK
In outline:
(§3)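 Peptide microarrays of ApoC3-derived peptides incubated with antibody samples, then stained with goat anti-human IgG (Fc) DyLight680 (1:5000) and anti-HA DyLight800 (1:2000) control. Read-out by fluorescence scanning at intensities 7/7 (red/green); a secondary-only pre-stain checked background, HA frame peptides served as quality control.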

For another assay, the target named is ApoC3 peptide … S48E (human, cyclic constrained). In outline:
as §3

The target in a further assay is ApoC3 peptide … S48I (human, cyclic constrained). In outline:
as §3

The next assay addresses ApoC3 peptide … S48N (human, cyclic constrained). The procedure, abridged:
as §3

For the next assay, the target named is T22, ApoC3 peptide … D45Q (human, cyclic constrained).
T22 peptide: ARGWVTQGFSSLK
In outline:
as §3

The target of a further assay is T23, ApoC3 peptide … K51T (human, not fully specified; cyclic constrained).
T23 peptide: ARGWVTDGFSSLT
The procedure, abridged:
as §3

B1: anti-ApoC3 antibody 6A6 (antibody, V domains shown)
VH: EVQLVESGGGLVQPGGSLRLSCAASGFTFSSYAGRWVRQVPGKGLEWVSSINAGGGSTSYADSVKGRFTISRDNAKNTLYLQMNSLKPEDTAKYYCTQNSYRYWGQGTRVAVSS
VL: DVVLTQTPGSLSVVPGESASISCKASQSLIHTDGKTYLYWLLQKPGQRPQLLIYQVSSHESGVPDRFTGSGSGTDFTLKISGVKAEDAGVYYCAQATYNPRTFGQGTKLEIK
notes: it was detected with goat anti-human IgG (Fc); also called mAb 6A6; llama antibody 6A6
For the molecule B1, the “% of binding to wild-type peptide” value with ApoC3 peptide … K60A turned out to be 120%; with ApoC3 peptide … D66A, 0%; with ApoC3 peptide … K60E, 223%; in the assay with ApoC3 peptide … D68E, 56.9%; with ApoC3 peptide … F61G, 25.9%; with ApoC3 peptide … D66G it was 0%. Also, the “% of binding to wild-type peptide” value in the assay with ApoC3 peptide … P69G is 16.3%; in the assay with ApoC3 peptide … D66I, 0%; with ApoC3 peptide … E70I, 1.59%; with ApoC3 peptide … P69K, 26.3%; with ApoC3 peptide … D68L, 0%; with ApoC3 peptide … F64M it was 109%. For the same molecule, the “% of binding to wild-type peptide” value with ApoC3 peptide … D68M came to 0%; in the assay with ApoC3 peptide … S62N, 126%; in the assay with ApoC3 peptide … E63P it was 138%; in the assay with ApoC3 peptide … W65R, 7.71%; with ApoC3 peptide … P69R, 17.4%; with ApoC3 peptide … L67S, 26.5%. For the same molecule, the “% of binding to wild-type peptide” value in the assay with ApoC3 peptide … E63T came out at 35.9%; in the assay with ApoC3 peptide … L67T, 100%; with ApoC3 peptide … W65V, 24%; with ApoC3 peptide … D66V, 0%; with ApoC3 peptide … K60W, 78.6%; with ApoC3 peptide … S62Y it was 16.3%. In addition, the “% of binding to wild-type peptide” value with ApoC3 peptide … L67Y stood at 3.08%; with ApoC3 peptide … D68Y, 0%.

B2: anti-ApoC3 antibody 14C7 (antibody, V domains shown)
VH: QVQVQESGPGLVKPSQTLSLTCTVSGGSITTNSYYWSWIRQPPGKGLEWMGAIDYSGDTYYSPSLKSRTSISRDTSKNQFTLQLTSVTPEDTAVYYCVSRIPTGEYWGQGTQVTVSS
VL: QTVVTQEPSLSVSPGGTVTLTCGLNSGSVTSSNYPDWYQQTPGQAPRLLIYNTNSRHSGVPSRFSGSISGNKAALTITGAQPEDEADYYCALYMGSDSVVFGGGTHLTVL
notes: it was detected with goat anti-human IgG (Fc); also called mAb 14C7; llama antibody 14C7
With B2, the “% of binding to wild-type peptide” value turned out to be 7.01% with ApoC3 peptide … G41A; 290% in the assay with ApoC3 peptide … S48E; 23.6% with ApoC3 peptide … S48I; 48.5% with ApoC3 peptide … S48N; 21% with ApoC3 peptide … D45Q; 17.5% with ApoC3 peptide … K51T.
